From the supplement of paper PMC5998384

What was measured:
HeLa Kyoto [1] = assay: solubility in G1/S (NP-40 vs SDS abundance) (log2 ratio); higher = more soluble; settings: cell cycle stage: G1/S
HeLa Kyoto [2] = assay: melting temperature (median over replicates), in situ; higher = more thermally stable
HeLa Kyoto [3] = assay: solubility change mitosis vs G1/S (difference of NP-40 vs SDS log2 ratios) (log2 ratio difference); higher = more soluble in mitosis
HeLa Kyoto [4] = assay: thermal stability score vs G1/S (z-score of summed log2 fold changes over temperatures); higher = more thermally stable than in G1/S
[5] = cell cycle stage: early G1 (4.5 h after nocodazole release)
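Throughout, for melting temperature (median over replicates), in situ: HeLa Kyoto cells synchronized by double thymidine or nocodazole block, proteins quantified by TMT10plex mass spectrometry, three independent biological replicates.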
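Throughout, for solubility change mitosis vs G1/S (difference of NP-40 vs SDS log2 ratios): synchronized HeLa Kyoto cells (double thymidine block for G1/S, nocodazole release for mitosis), protein amounts in NP-40 versus SDS lysates quantified by mass spectrometry, three biological replicates.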
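Throughout, for solubility in G1/S (NP-40 vs SDS abundance): HeLa Kyoto cells arrested at G1/S by double thymidine block, proteins quantified by TMT10plex mass spectrometry in mild NP-40 versus SDS extracts, three biological replicates.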
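Throughout, for thermal stability score vs G1/S (z-score of summed log2 fold changes over temperatures): synchronized HeLa Kyoto cells, proteins quantified by TMT10plex mass spectrometry, three biological replicates, mitosis taken 0.5 h after nocodazole release, G1/S directly after double thymidine block.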

Chain of PRRC2A (chain, as listed by the source): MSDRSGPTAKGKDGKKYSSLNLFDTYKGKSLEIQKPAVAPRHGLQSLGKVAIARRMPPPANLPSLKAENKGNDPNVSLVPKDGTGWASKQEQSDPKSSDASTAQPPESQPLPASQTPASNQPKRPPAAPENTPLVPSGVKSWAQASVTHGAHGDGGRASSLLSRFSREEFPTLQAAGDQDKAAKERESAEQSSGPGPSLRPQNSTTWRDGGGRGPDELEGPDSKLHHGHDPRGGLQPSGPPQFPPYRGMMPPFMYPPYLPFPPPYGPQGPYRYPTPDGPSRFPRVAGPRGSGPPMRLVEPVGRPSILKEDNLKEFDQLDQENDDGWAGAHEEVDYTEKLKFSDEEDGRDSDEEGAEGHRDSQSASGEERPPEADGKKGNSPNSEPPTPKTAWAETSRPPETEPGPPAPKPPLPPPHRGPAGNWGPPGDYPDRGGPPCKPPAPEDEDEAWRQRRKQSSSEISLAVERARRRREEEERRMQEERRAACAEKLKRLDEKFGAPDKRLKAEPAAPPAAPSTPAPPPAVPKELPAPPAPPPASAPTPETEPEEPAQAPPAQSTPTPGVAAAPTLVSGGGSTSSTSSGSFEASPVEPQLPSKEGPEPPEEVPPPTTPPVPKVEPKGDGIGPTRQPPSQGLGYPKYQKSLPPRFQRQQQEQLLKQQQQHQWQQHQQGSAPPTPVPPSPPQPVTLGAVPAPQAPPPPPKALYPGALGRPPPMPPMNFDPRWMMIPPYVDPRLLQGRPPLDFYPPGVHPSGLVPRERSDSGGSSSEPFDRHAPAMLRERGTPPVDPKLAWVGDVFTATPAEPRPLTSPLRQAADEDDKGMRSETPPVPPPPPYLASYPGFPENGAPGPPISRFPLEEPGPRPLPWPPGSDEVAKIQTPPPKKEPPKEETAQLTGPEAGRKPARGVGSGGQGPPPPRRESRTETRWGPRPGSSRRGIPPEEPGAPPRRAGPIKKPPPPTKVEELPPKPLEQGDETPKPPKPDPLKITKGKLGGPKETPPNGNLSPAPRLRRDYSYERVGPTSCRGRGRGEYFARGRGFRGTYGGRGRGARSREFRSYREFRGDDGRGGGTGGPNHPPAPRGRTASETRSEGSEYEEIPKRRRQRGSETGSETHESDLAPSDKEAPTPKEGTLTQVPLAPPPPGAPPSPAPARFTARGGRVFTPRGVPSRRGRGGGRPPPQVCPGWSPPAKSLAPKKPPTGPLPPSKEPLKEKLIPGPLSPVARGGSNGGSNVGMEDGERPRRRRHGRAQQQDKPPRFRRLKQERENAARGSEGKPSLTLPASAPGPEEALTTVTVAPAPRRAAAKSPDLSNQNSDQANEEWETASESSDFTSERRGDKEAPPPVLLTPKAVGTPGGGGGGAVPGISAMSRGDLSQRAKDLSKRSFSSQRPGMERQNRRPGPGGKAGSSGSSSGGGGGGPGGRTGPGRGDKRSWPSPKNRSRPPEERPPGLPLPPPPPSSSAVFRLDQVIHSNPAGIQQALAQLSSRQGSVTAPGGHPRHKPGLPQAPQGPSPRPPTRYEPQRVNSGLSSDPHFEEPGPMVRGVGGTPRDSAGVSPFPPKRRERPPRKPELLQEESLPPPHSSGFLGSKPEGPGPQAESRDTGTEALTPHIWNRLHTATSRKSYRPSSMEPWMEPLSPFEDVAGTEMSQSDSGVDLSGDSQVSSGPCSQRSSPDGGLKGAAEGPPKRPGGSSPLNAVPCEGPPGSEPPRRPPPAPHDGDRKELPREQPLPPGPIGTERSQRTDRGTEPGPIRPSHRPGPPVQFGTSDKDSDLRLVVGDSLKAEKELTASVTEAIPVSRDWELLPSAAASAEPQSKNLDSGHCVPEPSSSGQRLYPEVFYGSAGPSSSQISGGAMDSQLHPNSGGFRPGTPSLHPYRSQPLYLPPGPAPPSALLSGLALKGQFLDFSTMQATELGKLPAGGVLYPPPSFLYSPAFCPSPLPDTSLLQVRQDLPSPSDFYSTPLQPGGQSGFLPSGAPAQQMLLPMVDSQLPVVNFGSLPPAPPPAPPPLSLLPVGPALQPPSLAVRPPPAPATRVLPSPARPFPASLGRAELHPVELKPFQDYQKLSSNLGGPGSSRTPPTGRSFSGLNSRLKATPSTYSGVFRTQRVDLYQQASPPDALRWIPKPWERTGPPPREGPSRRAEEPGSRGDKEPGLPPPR
Chain of RNGTT (chain, as listed by the source): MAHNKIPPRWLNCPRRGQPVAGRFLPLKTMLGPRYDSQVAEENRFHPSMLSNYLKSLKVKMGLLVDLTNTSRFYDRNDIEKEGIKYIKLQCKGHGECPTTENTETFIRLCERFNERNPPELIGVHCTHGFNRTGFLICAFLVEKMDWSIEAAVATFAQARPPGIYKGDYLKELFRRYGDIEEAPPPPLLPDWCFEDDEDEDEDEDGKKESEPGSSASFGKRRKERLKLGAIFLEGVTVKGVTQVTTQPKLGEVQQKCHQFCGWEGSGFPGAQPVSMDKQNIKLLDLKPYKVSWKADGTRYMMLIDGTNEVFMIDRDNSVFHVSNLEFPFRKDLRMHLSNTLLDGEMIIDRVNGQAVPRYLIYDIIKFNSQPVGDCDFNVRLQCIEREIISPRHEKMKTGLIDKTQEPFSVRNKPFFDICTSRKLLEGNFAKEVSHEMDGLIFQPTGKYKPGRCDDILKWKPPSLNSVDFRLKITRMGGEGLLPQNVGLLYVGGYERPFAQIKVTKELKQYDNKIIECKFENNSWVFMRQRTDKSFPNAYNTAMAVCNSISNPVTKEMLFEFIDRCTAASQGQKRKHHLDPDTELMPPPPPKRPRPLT
Chain of TSC2 (chain, as listed by the source): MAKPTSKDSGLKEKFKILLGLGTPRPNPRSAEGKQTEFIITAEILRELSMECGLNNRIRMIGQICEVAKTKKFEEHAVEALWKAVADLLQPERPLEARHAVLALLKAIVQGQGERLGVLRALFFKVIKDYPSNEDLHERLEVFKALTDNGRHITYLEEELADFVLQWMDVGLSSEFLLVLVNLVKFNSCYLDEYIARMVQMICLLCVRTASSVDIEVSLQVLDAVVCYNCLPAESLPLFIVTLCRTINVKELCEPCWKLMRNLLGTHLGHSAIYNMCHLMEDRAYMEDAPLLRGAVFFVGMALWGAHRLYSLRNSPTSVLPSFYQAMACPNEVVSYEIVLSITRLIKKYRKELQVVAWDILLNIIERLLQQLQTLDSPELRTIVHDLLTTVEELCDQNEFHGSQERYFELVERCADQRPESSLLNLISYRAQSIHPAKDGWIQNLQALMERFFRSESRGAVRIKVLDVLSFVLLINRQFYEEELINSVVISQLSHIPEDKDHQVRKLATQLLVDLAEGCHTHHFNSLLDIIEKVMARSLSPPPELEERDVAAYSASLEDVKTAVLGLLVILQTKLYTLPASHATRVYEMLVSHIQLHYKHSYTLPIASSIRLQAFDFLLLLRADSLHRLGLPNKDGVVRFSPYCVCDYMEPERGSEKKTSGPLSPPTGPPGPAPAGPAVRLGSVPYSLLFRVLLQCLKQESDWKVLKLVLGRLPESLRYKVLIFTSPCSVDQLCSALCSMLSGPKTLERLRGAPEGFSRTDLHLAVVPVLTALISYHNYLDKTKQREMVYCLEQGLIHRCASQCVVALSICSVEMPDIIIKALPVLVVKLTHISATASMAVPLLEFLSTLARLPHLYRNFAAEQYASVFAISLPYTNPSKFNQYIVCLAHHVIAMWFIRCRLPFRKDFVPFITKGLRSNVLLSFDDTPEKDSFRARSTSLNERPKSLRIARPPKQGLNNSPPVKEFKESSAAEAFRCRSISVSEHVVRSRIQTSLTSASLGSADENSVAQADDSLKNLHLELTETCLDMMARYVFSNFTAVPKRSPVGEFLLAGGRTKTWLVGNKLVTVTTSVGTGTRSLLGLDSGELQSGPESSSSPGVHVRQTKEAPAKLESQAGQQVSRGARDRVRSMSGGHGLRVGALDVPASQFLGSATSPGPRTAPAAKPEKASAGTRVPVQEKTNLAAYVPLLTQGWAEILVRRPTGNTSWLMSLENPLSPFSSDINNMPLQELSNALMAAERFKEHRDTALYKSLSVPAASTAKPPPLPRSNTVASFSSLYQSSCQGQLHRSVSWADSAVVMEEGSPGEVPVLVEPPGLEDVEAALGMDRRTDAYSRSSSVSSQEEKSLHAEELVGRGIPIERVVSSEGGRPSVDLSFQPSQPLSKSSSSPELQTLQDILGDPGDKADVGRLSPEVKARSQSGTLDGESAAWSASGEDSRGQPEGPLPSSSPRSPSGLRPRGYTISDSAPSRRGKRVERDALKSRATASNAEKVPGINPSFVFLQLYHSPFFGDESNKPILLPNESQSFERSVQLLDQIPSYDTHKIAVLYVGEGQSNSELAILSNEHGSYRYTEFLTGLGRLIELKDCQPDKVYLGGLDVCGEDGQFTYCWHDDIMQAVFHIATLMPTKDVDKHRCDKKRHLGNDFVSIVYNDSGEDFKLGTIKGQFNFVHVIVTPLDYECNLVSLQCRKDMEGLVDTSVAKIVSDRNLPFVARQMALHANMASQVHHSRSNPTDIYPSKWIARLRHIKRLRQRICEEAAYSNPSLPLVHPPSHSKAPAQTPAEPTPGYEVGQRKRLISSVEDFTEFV
Chain of UBE2V2 (chain, as listed by the source): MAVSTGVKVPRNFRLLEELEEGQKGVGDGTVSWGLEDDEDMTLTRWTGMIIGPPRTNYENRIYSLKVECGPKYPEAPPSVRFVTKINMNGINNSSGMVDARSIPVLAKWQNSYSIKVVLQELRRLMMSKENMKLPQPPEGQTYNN

| Substance | solubility in G1/S (log2) (HeLa Kyoto [1]) | melting temperature (HeLa Kyoto [2]; cell cycle stage: G1/S) [°C] | melting temperature (HeLa Kyoto [2]; cell cycle stage: mitosis) [°C] | solubility change mitosis (log2) (HeLa Kyoto [3]) | thermal stability score (HeLa Kyoto [4]; [5]) | thermal stability score (HeLa Kyoto [4]; cell cycle stage: mitosis) |
| --- | --- | --- | --- | --- | --- | --- |
| POLD2 | 0.263 | 49.9 | 49.5 | -0.136 | 1.48 | 2.07 |
| POLE | -0.355 | 49.5 | 51.5 | -0.0472 | 0.724 | 1.31 |
| PRRC2A | -0.105 | 53.7 | 55.1 | 0.0463 | 0.422 | 0.00992 |
| RIF1 | -0.28 | 47.3 | 49.6 | 0.0253 | 2.16 | 5.52 |
| RNGTT | -0.301 | 47.7 | 48.7 | -0.0839 | 0.407 | 0.579 |
| SAR1A | 0.207 | 52 | 52.8 | -0.239 | 2.01 | 1.85 |
| SDE2 | 0.563 | 49.5 | 49.5 | 0.0378 | 2.03 | 1.98 |
| SEPHS1 | 0.503 | 58.8 | 58.8 | -0.0554 | -1.3 | -1.24 |
| SETD2 | -0.43 | 48.1 | 50.2 | 0.19 | 0.914 | 2.05 |
| SLC15A4 | 0.0784 | 55.4 | 56.5 | -0.171 | -2.84 | -2.51 |
| SLC27A2 | -0.335 | 50 | 50.3 | -0.133 | 2.25 | 2.44 |
| SMG1 | -0.17 | 50.3 | 50.2 | -0.102 | -0.61 | -0.143 |
| SNRNP200 | -0.756 | 50 | 50.8 | 0.171 | 2.93 | 4.86 |
| THOC2 | -0.681 | 48.6 | 49.5 | 0.221 | -3.49 | -0.552 |
| TOR1AIP1 | -0.0913 | 54.4 | 54.9 | 0.144 | 1.27 | 1.41 |
| TPR | -0.23 | 50.3 | 50.8 | 0.191 | -1.4 | 0.657 |
| TRPM7 | -0.312 | 51.6 | 51.4 | -0.0119 | 0.936 | 0.742 |
| TSC2 | -0.16 | 49.6 | 50.9 | -0.0844 | 0.00265 | 0.786 |
| TSR3 | 0.0751 | 54.3 | 54.3 | -0.12 | 0.927 | -0.253 |
| UBE2V2 | 0.464 | 52.5 | 52.9 | 0.122 | 0.348 | -0.815 |
| UBR2 | -0.361 | 49.9 | 49.8 | -0.184 | 0.798 | 1.58 |
| UGGT2 | -0.222 | 54 | 54.1 | -0.15 | 2.37 | 4.53 |
| UNC119B | 0.268 | 50.6 | 50.3 | -0.089 | -0.908 | -0.273 |
